Results as given in publication PMC4786781.

Experiments:
[1] = molecular target: T1, Spo0J R82A R82A (Bacillus subtilis) (UniProt P26497); assay: single-molecule PIFE kinetics, koff/kon; conditions: 150 mM NaCl, kon 2.1±0.2e6 M-1 s-1, koff 0.16±0.01 s-1, Cy3-dUTP randomly incorporated, about 1 per kb, PIFE: 20 mM Tris pH 7.5, 100 ug/ml BSA, 100 mM NaCl (150 mM for Spo0J R82A Kd), flow 100 ul/min, BLItz: 20 mM Tris pH 7.5, 150 mM NaCl, 0.02% …
T1 sequence: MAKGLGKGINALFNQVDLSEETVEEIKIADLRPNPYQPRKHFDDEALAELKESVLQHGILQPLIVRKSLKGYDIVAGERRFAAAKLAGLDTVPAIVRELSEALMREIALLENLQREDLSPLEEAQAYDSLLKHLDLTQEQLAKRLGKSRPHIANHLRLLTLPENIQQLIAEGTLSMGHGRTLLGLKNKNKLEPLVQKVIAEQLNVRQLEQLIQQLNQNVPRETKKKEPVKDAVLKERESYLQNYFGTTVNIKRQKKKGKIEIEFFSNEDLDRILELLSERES

[2] = tested on: HBsu (Bacillus subtilis); assay: single-molecule PIFE and DNA length, two-state model; conditions: Cy3-dUTP randomly incorporated, about 1 per kb, PIFE: 20 mM Tris pH 7.5, 100 ug/ml BSA, 100 mM NaCl (150 mM for Spo0J R82A Kd), flow 100 ul/min, BLItz: 20 mM Tris pH 7.5, 150 mM NaCl, 0.02% …
[3] = molecular target: T1, Spo0J R82A R82A (Bacillus subtilis); assay: single-molecule PIFE, steady state, Hill fit (n=0.8±0.2); conditions: 150 mM NaCl, apparent Kd, Cy3-dUTP randomly incorporated, about 1 per kb, PIFE: 20 mM Tris pH 7.5, 100 ug/ml BSA, 100 mM NaCl (150 mM for Spo0J R82A Kd), flow 100 ul/min, BLItz: 20 mM Tris pH 7.5, 150 mM NaCl, 0.02% …

20-kb Cy3-labelled DNA
Kd [1]: 76.2 nM | Kd ([2]; K1, high-affinity bending mode, first dimer): 13 nM | Kd ([2]; K2, low-affinity filament mode, second dimer): 390 nM | Kd [3]: 60.5 nM
